Laboratory results: patent US12397036B2, “Peptide exchange protein” (Cambridge Enterprise Limited, priority 2018, dated 2025)

What was measured:
EL4 tumour cells = assay: OT1 T cell killing of EL4 tumour cells; type: cell-based, murine; settings: 1 μM TAPBPR, 1 nM SIINFEKL
Method: (§1) Histograms are representative of three independent experiments. (19d) Bar graphs show the MFI of 25-D1.16−/+SD from three independent experiments. (19e) OT1 killing of EL4 cells treated −/+1 μM soluble TAPBPR^WT or TAPBPR^TN5, followed by incubation with 1 nM […] peptide. Error bars−/+s.e.m from triplicate wells. Data is representative of three independent experiments. Note: surface expressed H-2K^b are relatively more peptide receptive compared to human MHC I molecules. […] As OT1 T cells are highly efficient cytotoxic cells, killing 80-100% of targets after 1-4 hours, we decreased the concentration of […] used in these experiments to 1 nM in order to differentiate between TAPBPR-mediated and background peptide binding, otherwise we would not observe an additive effect of soluble TAPBPR on target cell killing.
Although the results above provide indication that soluble TAPBPR could be utilised to decorate target cells with immunogenic peptides and enhance T cell responses against tumours, we next determined whether this could result in enhanced killing of tumour cells. We assessed killing of murine EL4 tumour cells by OT1 T cells in the presence of human TAPBPR and very low concentrations of […] peptide.

Her2 = target: T1, Her2 (Homo sapiens, UniProt P04626); assay: Binding of recombinant TAPBPR proteins to HeLaM, HeLaM+Her2 and HeLaM^Her2KO cells; settings: 100 nM recombinant protein
T1 construct: HeLaM cells which naturally express Her2; endogenous in cells; host or cells: HeLaM, HeLaM+Her2 (over-expressing), HeLaM-Her2-KO (negative control)
Method: Histograms show the level of TAPBPR when the two cell lines were incubated with 100 nM protein while bar graphs summarise results using a range of concentrations of protein (0.001-100 nM). […] Each bar represents mean and standard deviation of three independent experiments.
Each bar represents mean and standard deviation of three independent experiments.

H-2K^b expressed on EL4 = target: T2, H-2K^b expressed on EL4 (Mus musculus, UniProt P01901); assay: […] loading on EL4 cells (SIINFEK*L and 25-D1.16 mAb); type: cell-based, murine; settings: 1 μM TAPBPR, 1 nM peptide 30 min
T2 construct: surface expressed H-2K^b are relatively more peptide receptive compared to human MHC I molecules; endogenous in cells; host or cells: EL4 (murine tumour cell line)
T2 sequence (P01901 22-369): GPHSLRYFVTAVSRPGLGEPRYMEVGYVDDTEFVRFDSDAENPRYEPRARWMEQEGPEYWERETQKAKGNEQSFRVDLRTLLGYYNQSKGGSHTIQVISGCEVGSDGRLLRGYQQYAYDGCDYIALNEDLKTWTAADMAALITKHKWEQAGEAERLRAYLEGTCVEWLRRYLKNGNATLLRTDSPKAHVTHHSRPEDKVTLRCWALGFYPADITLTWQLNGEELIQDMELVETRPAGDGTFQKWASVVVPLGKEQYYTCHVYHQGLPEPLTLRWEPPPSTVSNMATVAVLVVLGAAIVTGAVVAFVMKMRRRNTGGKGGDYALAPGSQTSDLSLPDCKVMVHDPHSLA
T2 sequence (P01887 21-119 partner): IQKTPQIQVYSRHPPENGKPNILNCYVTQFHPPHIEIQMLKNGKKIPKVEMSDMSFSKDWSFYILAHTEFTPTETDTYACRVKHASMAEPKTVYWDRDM
Method: as §1

[1] = target: T3, HLA-A*02:01 naturally expressed on MCF-7 (Homo sapiens, UniProt P04439, D140Y/D185E/D98H/E176V/E277Q/G131W/G231S/I119V/I121R/I166T/I218V/L300P/L318F/N151K/N90K/P208A/P217A/Q86G/Q94H/R138H/R169H/T345S); assay: Fluorescent peptide loading onto MCF-7 cells by soluble TAPBPR; type: cell-based
T3 construct: onto HLA-A*02:01 naturally expressed on MCF-7, a breast cancer cell line; endogenous in cells
Method: (YLL) followed by staining with the TCR-like mAb L1 specific for […]/HLA-A2 complexes. (6d) The MFI of L1 binding to MCF-7 cells −/+SD from three independent experiments. (6e) Bar graphs show T cell activity measured by IFN-γ secretion in fluorospot assays of a HLA-A2 restricted […] specific CD8+ T cell line when incubated with MCF-7 target cells as treated in FIG. 6b with the exception that non-fluorescent […] peptide at 100 pM was used. […] Error bars−/+SD. Note: In FIGS. 6a, 6b, & 6e IFNγ treated cells were used.
(§2) Target cell lines were seeded at 25,000-30,000 cells/well in 12-well plates and stimulated with IFN-γ. Following the stimulation period, the cells were washed 3 times with 1×PBS and incubated with 300 μL pre-warmed opti-MEM (Thermo Fisher Scientific, UK). In case the peptide binding was done in the presence of recombinant TAPBPR, the cells were then treated with or without recombinant TAPBPR (100 nM for HLA-A*68:02 or 1 μM for HLA-A*02:01). After 15 min, the desired TAMRA-labelled peptide was added to the cells and incubated at 37° C. (15 min for HLA-A*68:02 or 60 min for HLA-A*02:01). In case the peptide binding was facilitated by over-expressed TAPBPR, the labelled peptide was directly added to the cells, without using recombinant TAPBPR. […] The level of bound peptide/cell was determined by flow cytometry, using the YelFL1 channel (Cytek).

EL4 cells = assay: Binding of soluble human TAPBPR to EL4 cells (PeTe-4); parameters: species or system murine; settings: 1 μM, 15 min, 37° C.
HLA-A*02:01 = target: T4, HLA-A*02:01 (Homo sapiens, UniProt P04439, D140Y/D185E/D98H/E176V/E277Q/G131W/G231S/I119V/I121R/I166T/I218V/L300P/L318F/N151K/N90K/P208A/P217A/Q86G/Q94H/R138H/R169H/T345S); type: cell-based; settings: ETV* (HLA-A*68:02) and SRY* (HLA-B*27) controls
T4 construct: expressed in transfected cells; host or cells: HeLaM-HLA-ABC-KO
Method: (g) Dose response curves of IFN-γ treated HeLaM and HeLaM-HLA-ABC^KO cells treated −/+100 nM TAPBPR with increasing concentrations of ETVSK*QSNV for 15 min at 37° C. Line graphs show MFI−/+s.e.m from three independent experiments. […] (h) Histograms of the typical fluorescent peptide binding observed using flow cytometry. (i) Bar graphs showing the MFI of fluorescent peptide binding to HeLaM HLA-ABC^KO+A2−/+s.e.m from two independent experiments with duplicates. ***P≤0.001, ****P≤0.0001, n/s not significant, using unpaired two-tailed t-test.
as §2

B1: soluble TAPBPR^WT: secreted His-tagged luminal domain of human TAPBPR, lacking transmembrane domain and cytoplasmic tail; SEQ ID NO: 2 (protein)
chain: KPHPAEGQWRAVDVVLDCFLVKDGAHRGALASSEDRARASLVLKQVPVLDDGSLEDFTDFQGGTLAQDDPPIIFEASVDLVQIPQAEALLHADCSGKEVTCEISRYFLQMTETTVKTAAWFMANVQVSGGGPSISLVMKTPRVAKNEVLWHPTLNLPLSPQGTVRTAVEFQVMTQTQSLSFLLGSSASLDCGFSMAPGLDLISVEWRLQHKGRGQLVYSWTAGQGQAVRKGATLEPAQLGMARDASLTLPGLTIQDEGTYICQITTSLYRAQQIIQLNIQASPKVRLSLANEALLPTLICDIAGYYPLDVVVTWTREELGGSPAQVSGASFSSLRQSVAGTYSISSSLTAEPGSAGATYTCQVTHISLEEPLGASTQVVPPERR
modifications: His tag; TAPBPR luminal domain (mature sequence without 21 aa leader sequence)
OT1 cytotoxic T cell killing of peptide-pulsed EL4 target cells (EL4 tumour cells): significant enhancement in killing
binding to Her2-deficient HeLaM cells (Her2): still capable of binding
loading of SIINFEKL onto H-2K^b (H-2K^b expressed on EL4): significantly enhanced the loading of SIINFEKL
loading of fluorescent derivatives of tumour antigens IMDQVPFSV, […], LLGRNSFEV and RLLQETELV ([1]; 1 μM TAPBPR 15 min, 10 nM peptide 60 min): significantly enhanced the loading
association of YLLEK*LWRL and NLVPK*VATV onto HLA-A2 ([1]; versus peptide alone or TAPBPR^TN5): enhanced the association
binding to EL4 cells (EL4 cells): bound to EL4 cells
binding of peptides specific for other MHC class I molecules onto HLA-A2 (HLA-A*02:01): did not promote the binding
